The values below come from article PMC5424706 (Molecular cell, 2017).

Assay [1] deals with PhoP-HA protein, purified (Salmonella enterica serovar Typhimurium (strain 14028s)) (UniProt D0ZV90). In words: pull-down.
The target of assay [2] is T1, PhoP-HA protein, purified (Salmonella enterica serovar Typhimurium …, UniProt D0ZV90 1-224).
T1 sequence: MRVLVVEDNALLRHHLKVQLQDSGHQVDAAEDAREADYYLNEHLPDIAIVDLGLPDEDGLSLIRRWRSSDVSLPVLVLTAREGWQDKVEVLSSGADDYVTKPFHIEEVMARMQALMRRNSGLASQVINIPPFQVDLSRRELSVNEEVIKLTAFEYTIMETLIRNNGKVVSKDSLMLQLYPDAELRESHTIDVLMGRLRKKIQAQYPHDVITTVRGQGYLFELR
In words: pull-down.

In the case of “ClpS-FLAG, in vitro synthesized (natural protein)”, the half-inhibitory concentration (IC50) in assay [1] was 14.6 µM.

B1: MgtC-FLAG, in vitro synthesized (natural protein)
chain: MEERMLMFPYILNLLAAMLLGALIGAERQWRQRMAGLRTNALVATGAAVFILSSMTTSPDSPGRIAAQIVSGIGFLGAGVIMREGMNVRGLNTAATLWCSAGIGVLCGLGQFKNALAATIIILCANILLREAAQRINQLPISAEGEKRYILKVTCNKEDESAVRQWLLNIVKEAAICLQGLGSVPAQEQGYKEIRAELVGHADYRKTRELIISRIGDNDNITAIHWSIDSQ
Molecule B1 had a half-maximal inhibitory concentration (IC50) in assay [2] of 8.4 µM.

For orientation: IC50 means the midpoint of a concentration-inhibition curve. A lower IC50 goes with greater potency.
